Reference: FireProtDB (doi:10.1002/pro.5560010709)

Conditions: Bos taurus; pH 4.2; Thermal; CD; Sodium acetate 0.01 M; NaCl 0.1 M; reversible: yes; whole UniProt chain shown

B1: Ribonuclease pancreatic wild type, P61823 (protein)
chain: MALKSLVLLSLLVLVLLLVRVQPSLGKETAAAKFERQHMDSSTSAASSSNYCNQMMKSRNLTKDRCKPVNTFVHESLADVQAVCSQKNVACKNGQTNCYQSYSTMSITDCRETGSSKYPNCAYKTTQANKHIIVACEGNPYVPVHFDASV
For B1, the Tm was 56 °C.
